Columns and labels:
native gel or EMSA = target: the molecule itself; assay: native gel or EMSA
SEC = target: the molecule itself; assay: SEC

B1: glutaryl-CoA dehydrogenase (GCDH), mouse liver mitochondria (enzyme, mouse (endogenous in liver mitochondria), UniProt Q60759 45-438, looked up)
chain: RPVFDWKDPLILEEQLTADEKLIRDTFRNYCQERLMSRILLANRNEVFHRDIVYEMGELGVLGPTIKGYGCAGVSSVAYGLLTRELERVDSGYRSMMSVQSSLVMHPIYTYGSEEQRQKYLPGLAKGELLGCFGLTEPNHGSDPGGMETRARHNPSNQSYTLSGTKTWITNSPVADLFIVWARCEDNCIRGFILEKGMRGLSAPRIEGKFSLRASATGMIIMDSVEVPEENVLPNVSSLAGPFGCLNTARYGITWGVLGAAEFCLHTARQYALDRIQFGVPLARNQLVQKKLADMLTEITLGLHACLQLGRLKDQDKATPEMVSMLKRNNCGKALDIARQARDILGGNGISDEYHVIRHAMNLEAVNTYEGTHDIHALILGRAITGIQAFTVGK
stoichiometry N (native gel or EMSA): 4

B2: recombinant human GCDH, unmodified (hGCDH-6xHIS) (enzyme, UniProt Q92947 45-438, looked up)
chain: RPEFDWQDPLVLEEQLTTDEILIRDTFRTYCQERLMPRILLANRNEVFHREIISEMGELGVLGPTIKGYGCAGVSSVAYGLLARELERVDSGYRSAMSVQSSLVMHPIYAYGSEEQRQKYLPQLAKGELLGCFGLTEPNSGSDPSSMETRAHYNSSNKSYTLNGTKTWITNSPMADLFVVWARCEDGCIRGFLLEKGMRGLSAPRIQGKFSLRASATGMIIMDGVEVPEENVLPGASSLGGPFGCLNNARYGIAWGVLGASEFCLHTARQYALDRMQFGVPLARNQLIQKKLADMLTEITLGLHACLQLGRLKDQDKAAPEMVSLLKRNNCGKALDIARQARDMLGGNGISDEYHVIRHAMNLEAVNTYEGTHDIHALILGRAITGIQAFTASK
stoichiometry N (SEC): 4

B3: chemically succinylated recombinant human GCDH (succinyl-GCDH) (enzyme, UniProt Q92947 45-438, looked up)
chain: B2 chain
modifications: succinyl-lysine, 11 sites found by LC-MS/MS (sites shown in Supporting Figure 2G, not given)
stoichiometry N (SEC): 4
